Data as given in doi:10.1101/2024.10.29.620959v2.

Key:
[1] = substrate: CCCCCCCCCCCC(=O)O; experiment: purified protein; settings: pH 7.5
[2] = substrate: CCCCCCCCCCCCCCCC(=O)O; experiment: purified protein; settings: pH 7.5

B1: FadD5 (Mycobacterium tuberculosis H37Rv) (protein)
chain: MTAQLASHLTRALTLAQQQPYLARRQNWVNQLERHAMMQPDAPALRFVGNTMTWADLRRRVAALAGALSGRGVGFGDRVMILMLNRTEFVESVLAANMIGAIAVPLNFRLTPTEIAVLVEDCVAHVMLTEAALAPVAIGVRNIQPLLSVIVVAGGSSQDSVFGYEDLLNEAGDVHEPVDIPNDSPALIMYTSGTTGRPKGAVLTHANLTGQAMTALYTSGANINSDVGFVGVPLFHIAGIGNMLTGLLLGLPTVIYPLGAFDPGQLLDVLEAEKVTGIFLVPAQWQAVCTEQQARPRDLRLRVLSWGAAPAPDALLRQMSATFPETQILAAFGQTEMSPVTCMLLGEDAIAKRGSVGRVIPTVAARVVDQNMNDVPVGEVGEIVYRAPTLMSCYWNNPEATAEAFAGGWFHSGDLVRMDSDGYVWVVDRKKDMIISGGENIYCAELENVLASHPDIAEVAVIGRADEKWGEVPIAVAAVTNDDLRIEDLGEFLTDRLARYKHPKALEIVDALPRNPAGKVLKTELRLRYGACVNVERRSASAGFTERRENRQKL
B1 showed a Km [1] of 102 ± 8.55 µM and a Km [2] of 89.83 ± 9.71 µM.
